Measurements as given in patent US20250281533A1 (LG CHEM, published 2025).

B1: scFv-Fc antibody including the scFv 2447_3A12 (Fc fusion)
scFv: EVQLVQSGAEVKKPGASVKVSCKASGYTFTSYGISWVRQAPGQGLEWMGWISAYNGNTNYAQKLRGRVTMTTDTSTSTAYMELRSLRSDDTAVYYCARDPHILTGYYRGGWFDPWGQGTLVTVSSGGGGSGGGGSGGGASSYELTQDPAVSVVLGQTVRITCQGDSLRSYYASWYQQKPGQAPVLVIYGKNNRPSGIPDRFSGSSSGNTASLTITGAQAEDEADYYCNSRDSSGNHRVFGGGTKLTVL
notes: scFv-Fc format as used in the Biacore assay; not shown: Fc part (with any hinge or linker) of the scFv-Fc
B2: scFv-Fc antibody including the scFv 2447_3A01 (Fc fusion)
scFv: EVQLLESGGGLVQPGGSLRLSCAASGFTFDDYAMHWVRQAPGKGLEWVSGISWNSGSIVYADFVKGRFTISRDNAKNSLYLQMNSLRAEDTALYYCAKDISSGWYPGTFDYWGQGTLVTVSSGGGGSGGGGSGGGASSYELTQDPAVSVALGQTVRITCQGDSLRSYYASWYQQKPGQAPVLVIYGKNNRPSGIPDRFSGSSSGNTASLTVTGAQAEDEADYYCSSRDSSDDVVFGGGTQLTVL
notes: as for B1
B3: scFv-Fc antibody including the scFv 2447_3C08 (Fc fusion)
scFv: EVQLLESGGGLVQPGGSLRLSCAASGFTFDDYAMHWVRQAPGKGLEWVSGISWNSGSIGYADSVKGRFTISRDNAKNSLYLQMNSLRAEDTALYYCAKDRGSGYEGNYYGMDVWGQGTLVTVSSGGGGSGGGGSGGGASSYELTQDPAVSVALGQTVRITCQGDSLRSYYASWYQQKPGQAPVLVIYGKNNRPSGIPDRFSGTTSGNTASLTITGAQAEDEADYYCNSRDSSGNHYVFGTGTKVTVL
notes: as for B1
B4: scFv-Fc antibody including the scFv 2447_3H08 (Fc fusion)
scFv: EVQLLESGGGLVQPGRSLRLSCAASGFTFDDYAMHWVRQAPGKGLEWVSGISWNSGSIDYADSVKGRFTISRDNSKNTLYLQMNSLRAEDTAVYYCARDRSSGWYTGSFDYWGQGTLVTVSSGGGGSGGGGSGGGASSYELTQDPAVSVALGQTVRITCQGDSLRSYYASWYRQKPGQAPVLVIYGKNNRPSGIPDRFSGSSSGNTASLTIIGAQAEDEADYYCQSRDSSDNRVLFGGGTKVTVL
notes: scFv-Fc format as used in the Biacore assay; not shown: Fc part (and any hinge or linker) of the scFv-Fc
B5: scFv-Fc antibody including the scFv 2447_2H08 (Fc fusion)
scFv: EVQLVQSGAEVKKPGASVKVSCKASGYTFTNYGISWVRQAPGQGLEWMGWISAYNGNTNYAQKLQGRVTMTTDTSTSTAYMELRSLRSDDTAVYYCARDPHILTGYYRGGWFDPWGQGTTVTVSSGGGGSGGGGSGGGASSYELTQDPAVSVALGQTVTITCQGDSLRTSYAGWLQQKPGQAPVLVLYGKTSRPSGIPDRFSGSTSGNTASLTITGAQAEDEAEYFCHSRDSNDNYLEVVFGGGTKLTVL
notes: as for B1
B6: scFv-Fc antibody including the scFv 2447_3A08 (Fc fusion)
scFv: EVQLVQSGAEVKKPGASVKVSCKASGYTFTSYGISWVRQAPGQGLEWMGWISAYNGNTNYAQKLQGRVTMTTDTSTSTAYMELRSLRSDDTAVYYCARDRATIFGVVTPFDYWGQGTLVTVSSGGGGSGGGGSGGGASSYELTQDPAVSVALGQTVRITCQGDSIRSYSASWYQQKPGQAPRLVIYGKNNRPSGIPDRVSGSTSGNTASLTVTGAQAEDEADYYCNSRDSSGNRVVFGGGTQLTVL
notes: as for B1
B7: scFv-Fc antibody including the scFv 2447_3B07 (Fc fusion)
scFv: QVQLVESGGVVVQPGGSLRLSCAASGFTFDDYAMHWVRQAPGRGLEWVSLTSWDGGSTYYADSVKGRFTISRDNSKNSLYLQMNSLRAEDTALYYCAKDHSSGWYNGGMDVWGQGTMVTVSSGGGGSGGGGSGGGASSYELTQDPAVSVALGQTVRITCQGDSLRSYYASWYQQKPGQAPVLVIYGKNNRPSGIPDRFSGSSSGNTASLTITGAQAEDEADYYCNSRDSSGNHVVFGGGTKLTVL
notes: as for B1
B8: scFv-Fc antibody including the scFv 2447_3A09 (Fc fusion)
scFv: EVQLLESGGGLVQPGRSLRLSCAATGFTFDDYAMHWVRQAPGKGLEWVSGISWNSGSIGYADSVKGRFTISRDNAKNSLYLQMNSLRAEDTASYYCAKDVSSGWYWYAFDIWGQGTLVTVSSGGGGSGGGGSGGGASSYELTQDPAVSVALGQTVRITCQGDSLRSYYASWYQQKPGQAPVLVIYGKNNRPSGIPGRFSGSSSGNTASLTVTGAQAEDEADYYCNSRDSGGSVVFGGGTKLTVL
notes: as for B1
B9: scFv-Fc antibody including the positive control scFv G03 (Fc fusion)
scFv: EVQLVQSGAEVKKPGATVKISCKVSGYTFTSYWMHWVQQAPGKGLEWIGYINPGTGYIEYNQKFKDRVTITADKSTDTAYMELSSLRSEDTAVYYCASSTAPFDYWGQGTLVTVSSGGGGSGGGGSGGGASEIVLTQSPGTLSLSPGERATLSCKASQDIKSYLSWYQQKPGQAPRLLIYYATRLADGIPDRFSGSGSGTDFTLTISRLEPEDFAVYYCLQYDESPYTFGQGTKLEIK
notes: not shown: Fc part (with any hinge or linker) of the scFv-Fc
B10: scFv-Fc antibody including the scFv 2447_3H02 (Fc fusion)
scFv: EVQLLESGGGLVQPGRSLRLSCAASGFTFDDYAMHWVRQAPGKGLEWVSGISWDSGSIGYADSVKGRFTISRDNAKNSLYLQMNSLRAEDTALYYCAKDVSSGWYWYAFDIWGQGTLVTVSSGGGGSGGGGSGGGASSYELTQDPAVSVALGQTVRITCQGDILRSYYASWYQQKPGQAPVLVIYGKNNRPSGIPDRFSGSSSGNTASLTITGAQAEDEADYYCNSRDSSGNRVVFGGGTKLTVL
notes: as for B4
B11: scFv 2447_3A12 (scFv)
scFv: B1 scFv
notes: also called #6
B12: scFv 2447_3A01 (scFv)
scFv: B2 scFv
B13: scFv 2447_3C08 (scFv)
scFv: B3 scFv
B14: scFv 2447_3A08 (scFv)
scFv: B6 scFv
B15: scFv 2447_3A09 (scFv)
scFv: B8 scFv
notes: also called #5
B16: positive control scFv G03 (scFv)
scFv: B9 scFv

What follows are binders tested against T1, Human MUC1 protein (human, UniProt P15941 1041-1153, limits assumed) (assay: SPR, Biacore T200; scFv-Fc on anti-human IgG (Fc) CM5 chip, human MUC1 protein injected at 25-400 nM).
T1 construct: also called mucin1 antigen; human mucin1
T1 sequence: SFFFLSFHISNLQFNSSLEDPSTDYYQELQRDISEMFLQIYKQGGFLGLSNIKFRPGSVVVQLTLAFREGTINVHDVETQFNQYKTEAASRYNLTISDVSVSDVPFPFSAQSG
Protocol: Affinity of scFv-Fc antibody including the scFv for mucin1 antigen was measured using Biacore T200 (GE healthcare). Anti-human IgG (Fc) antibody (GE healthcare, Cat. No. BR-1008-39, final concentration of 25 ug/mL) was applied at a rate of 5 uL/min for 360 seconds on a Series S Sensor Chip CM5 (GE healthcare, Cat. No. BR-1005-30) using an Amine Coupling Kit (GE healthcare, Cat. No. BR-1000-50) and immobilized at about 5000-7000 RU.

Binder | Kd [nM]
B1 | 13.8
B2 | 51.5
B3 | 24
B4 | 39.9
B5 | 94.8
B6 | 320
B7 | 51.7
B8 | 62.1
B9 | 27.6
B10 | 58.8

What follows are binders tested against T2, C subunit of human MUC1 expressed in HEK293T cells (HEK293T-v1) (human, UniProt P15941 1098-1255, limits assumed) (assay: flow cytometry (PE MFI, corrected to G03 at 380 ug/mL) on HEK293T-v1 cells expressing MUC1 C subunit).
T2 construct: domain: C subunit of MUC1; also called MUC1-C
T2 sequence (looked up): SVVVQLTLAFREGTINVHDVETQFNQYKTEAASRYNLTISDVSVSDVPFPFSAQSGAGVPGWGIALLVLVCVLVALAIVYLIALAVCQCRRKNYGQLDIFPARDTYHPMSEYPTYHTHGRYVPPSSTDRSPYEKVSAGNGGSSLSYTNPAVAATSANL
Protocol: The soluble scFv prepared in Example 1 was diluted 5-fold to prepare a total of 8 serial dilutions. Each serial dilution was 380 μg/mL, 76 μg/mL, 15.2 μg/mL, 3.04 μg/mL, 0.608 μg/mL, 0.1216 μg/mL, 0.02432 μg/mL, 0.004864 μg/mL. A buffer used in soluble scFv dilution and cell washing was PBS containing 2% FBS and 10 mM EDTA. Four kinds of cells were prepared at a density of 1×10⁶/mL, respectively, and put in a 96 well U-bottom cell culture plate at a density of 1×10⁵/100 μl/well, followed by centrifugation at 1500 RPM for 5 minutes. The soluble scFv prepared previously was treated in an amount of 50 μl/well. The cells were left at 4° C. for 1 hour. 150 μl/well of the cell washing buffer was added thereto and then mixed, followed by centrifugation at 1500 RPM for 5 minutes. The supernatant was discarded, and 200 μl/well of the cell washing buffer was added thereto and then mixed, followed by centrifugation at 1500 RPM for 5 minutes. A goat anti-human IgG Fc-biotin antibody (Invitrogen, A18821) was diluted 500-fold, and 50 μl/well thereof was treated. The cells were left at 4° C. for 20 minutes. 150 μl/well of the cell washing buffer was added thereto and then mixed, followed by centrifugation at 1500 RPM for 5 minutes. The supernatant was discarded, and 200 μl/well of the cell washing buffer was added thereto and then mixed, followed by centrifugation at 1500 RPM for 5 minutes. PE-Streptavidin (BD Pharmigen, 554061) was diluted 1000-fold, and 50 μl/well thereof was treated. The cells were left at 4° C. for 20 minutes. 150 μl/well of the cell washing buffer was added thereto and then mixed, followed by centrifugation at 1500 RPM for 5 minutes. The supernatant was discarded, and 200 μl/well of the cell washing buffer was added thereto and then mixed, followed by centrifugation at 1500 RPM for 5 minutes. 80 μl/well of the cell washing buffer was added and mixed, followed by flow cytometry.
The affinity of the soluble scFv to the mucin1-expressing cells was confirmed by PE MFI values from the results of the flow cytometry. Each cell line without soluble scFv was stained with another fluorescent antibody (Goat anti-human IgG Fc-biotin antibody, PE-Streptavidin), which was used as a negative control value, and each cell line was treated with G03 at a concentration of 380 μg/mL, which was used as a positive control value, and MFI value was corrected as follows: […]

Binder | EC50 [µg/mL]
B11 | 1.47
B12 | 4.78
B13 | 1.38
B14 | 1.73
B15 | 1.96
B16 | 3.46
